Assay results taken from US11318209B2, “Targeting macula densa cells as a new therapeutic approach for kidney disease” (MACULA DENSA CELL LLC, priority 2016, dated 2022).
“Also recorded” adds a separate entry of the source.

Experiments:
[1] = tested on: NG2+ cells in the JGA area; assay: NG2 immunofluorescence of low salt diet+captopril-treated mouse kidneys; type: in vivo
Description: FIG. 6. NG2 (FIG. 6A, green) and renin (FIG. 6B, red) immunofluorescence of low salt diet+captopril-treated mouse kidneys. […] Nuclei were labeled blue with DAPI. n=4 each group, *: P<0.05.
(§1) The increased density of NG2+ cells was 70% inhibited by the administration of the selective COX-2 inhibitor SC58236 (FIG. 6E).

MMDD1 cells = assay: GFP transfection with MMDD1 homing peptide+GFP cDNA complex; type: cell-based; conditions: overnight incubation, fluorescence microscopy
Description: FIG. 19. Selective targeting of MD cells with the MMDD1 homing peptide. […] Note the diffuse cytosolic GFP expression in MMDD1 cells indicating successful escape of the endosomes after fusion protein internalization.
In preliminary data, the Inventors identified a MMDD1 homing peptide based on phage-display, used it as targeting domain, and fused to a histidine-rich amphipathic peptide, optimized for DNA binding properties and gene delivery through endosomal escape. The fusiogenic peptide was synthesized:
The peptide was mixed with pcDNA3.1 GFP and incubated for 1 hour at room temperature. The solution was added to cultured MMDD1 cells (MD cell line), HEK293 cells and M-1 cells (collecting duct cell line), and incubated overnight at 37° C. in a humidified atmosphere (95% air and 5% CO2). Transfection was measured by fluorescence microscopy.

[2] = tested on: Ki67+ proliferating cells in the JGA area; assay: Ki67 immunofluorescence of low salt diet+captopril-treated mouse kidneys; type: in vivo
Description: FIG. 7. Ki67 (red nuclei) immunofluorescence of control (FIG. 7A-FIG. 7B) and low salt diet+captopril-treated mouse kidneys (FIG. 7C-FIG. 7D). In contrast to control untreated (FIG. 7A) and control+7-NI (FIG. 7B), a high density of Ki67+ proliferating cells are visible around the JGA interstitium in response to low salt diet+captopril treatment (FIG. 7C). […] Nuclei were labeled blue with DAPI. n=4 each group, §: P<0.05 versus ctrl, *: P<0.05 versus untreated low salt+captopril.
as §1

[3] = tested on: NG2-derived progenitor cells; assay: Kidney tissue remodeling after 10 days of loop diuretic; type: in vivo; conditions: 10 days of treatment in an animal model
Description: FIG. 22. […] Increase in renal cortical mesenchyme-derived cell density (red), remodeling of the entire length of the glomerular (G) arterioles by NG2-derived progenitor cells within 10 days in response to loop diuretics.
The Inventors' initial experimental strategy to show proof-of-principle for this macula densa mechanism was to apply gold-standard whole body approaches to activate this new mechanism (e.g. dietary salt restriction and loop diuretics), which have been known for decades to improve kidney function. One example is the use of the loop diuretic furosemide, which blocks salt-sensing by MD cells and therefore is equivalent to the effects of low dietary salt intake as shown in FIGS. 6-7, 10). […] Furosemide and other loop diuretics have been in human clinical use for decades as efficient anti-hypertensive therapies. In addition to diuretics, the Inventors will explore other small molecules that may have specific MD cell targeting characteristics, and may activate the MD kidney repair program.

cultured GEnCs [4] = assay: GEnC cell proliferation and cell migration (scratch opening assay); type: cell-based
[5] = BalbC Adriamycin mouse model of FSGS; type: in vivo
Description: FIG. 24. The robust protective effects of treatment with recombinant CCN1 or conditioned MD cell media in the BalbC Adriamycin mouse model of FSGS in vivo. FIG. 24A: Albuminuria (albumin/creatinine ratio, ACR) in the various control and treatment groups before ADR-induced kidney injury (baseline), two weeks later before the start of treatments, and 1 and 4 weeks after treatment with saline, recombinant CCN1, control or low salt-conditioned MD cell media. FIG. 24B-FIG. 24C: Trichrome staining of kidney histological sections.
In other work The Inventors tested the effects and therapeutic potential of the aforementioned novel biologicals. The robust protective effects of treatment with recombinant CCN1 or conditioned MD cell media in the BalbC Adriamycin mouse model of human-like focal segmental glomerulosclerosis (FSGS) in vivo is shown in FIG. 24. […] The development of albuminuria, the most important and clinically relevant functional readout of the failing kidneys was measured in the various control and experimental treatment groups before ADR-induced kidney injury (baseline), two weeks later before the start of treatments, and 1 and 4 weeks after treatment with saline, recombinant CCN1, control or low salt-conditioned MD cell media.

cultured GEnCs [6] = assay: Endothelial tube formation assay (in vitro angiogenesis); type: cell-based; conditions: standard doses of CCN1 and VEGF
Method: FIG. 11. Robust effect of CCN1 on GEnCs: in vitro angiogenesis. Endothelial tube formation assays were performed using cultured GEnCs and standard doses of CCN1 and VEGF. *: P<0.05. Results are shown in FIG. 11A, FIG. 11B, FIG. 11C, FIG. 11D and FIG. 11E.
(§2) CCN1 had no effect on renin cell proliferation and migration (not shown).
In order to reproduce all of these MD-specific protective factors for therapeutic use, the Inventors utilized the existing MMDD1 in vitro cell culture model of MD cells that endogenously produce these factors. Mimicking the in vivo physiological activation of MD cells (low salt diet), the NaCl content of MD tissue culture medium was reduced by half as described earlier. […] The therapeutic strategy with this medium (illustrated in FIG. 21) is the same as above for CCN1, to inject it under the renal capsule for specific kidney targeting.

[7] = tested on: glomerular endothelial cells; assay: Serial MPM imaging of glomerular endothelial cells in Cdh5-Confetti mice; type: in vivo, mouse
Method: FIG. 15. Tracking the fate of the same glomerular endothelial cells over time in vivo at the single cell level. FIG. 15A-FIG. 15B: Serial MPM imaging of the same glomerulus (G) in the same Cdh5-Confetti mice was performed daily for one week. Endothelial cell distribution was registered using Z-sectioning of the glomerulus from top to bottom at each time point. Compared to baseline (FIG. 15A) when cells of all Confetti colors (membrane-bound CFP (blue), nuclear GFP (green), cytosolic YFP (yellow) and RFP (red)) were evenly distributed within the glomerulus, monochromatic glomeruli developed as early as 4 days (FIG. 15B) after endothelial injury (L-NAME treatment) indicating the presence of single precursor cell-derived colonies. Note the presence of cells in multiple colors in the afferent arteriole (AA, arrow) at baseline (FIG. 15A) including one GFP+ (green) and one RFP+ (magenta) cell at the terminal segment, and the identically colored intra-glomerular cell colonies (mostly green, some magenta) 4 days later (FIG. 15B). FIG. 15C: Schematic of the three directly adjacent JGA cell types (MD, JG renin, and AA EPCs) forming a functional syntitium via cell-to-cell crosstalk to remodel the glomerulus.

sclerotic glomeruli = assay: ADR mouse model of GS, renal subcapsular treatment; type: in vivo
Description: FIG. 17. The effects of CCN1 and MMDD1 conditioned media treatment in the ADR mouse model of GS. FIG. 17A: illustration of study design. FIG. 17B: Effects of CCN1 and MMDD1 media on the number of Ki67+ cells (IF, red) per field. FIG. 17C: Effects of CCN1 and MMDD1 media on the number of p57+ podocytes (IF, red) per glomerulus. Green is autofluorescence for visualization of tissue anatomy.
In other preliminary experiments, mouse (ADR nephropathy resembling human-like FSGS) and rat (PAN-induced FSGS) models of CKD were established. Single renal subcapsular treatment with exogenous recombinant CCN1 was performed at a time point (two weeks after second ADR dose in mice, or after the second dose of PAN in rats) when severe and persistent glomerular pathology was confirmed (FIG. 17A), with subsequent two weeks' follow-up. Animals were placed in metabolic cages weekly for urine collection, and tissues (kidney, aorta, heart, brain, blood) harvested 4 weeks (after first ADR dose in mice), or 2 months (after first PAN dose in rats).
Since the main problem in kidney disease appears to be reduced or absent production of CCN1 by macula densa cells, the Inventors can supplement recombinant CCN1 peptide delivered specifically into the renal parenchyma. In preliminary studies illustrated in FIG. 17, the Inventors used subcapsular injections of recombinant CCN1. However, this is invasive procedure, which would have limited clinical use. A much better non-invasive approach the Inventors are currently testing is to give systemic iv injection of recombinant CCN1 targeted specifically to the kidney blood supply. This is performed by conjugating recombinant CCN1 to a glomerulus homing peptide. The promise and therapeutic benefit of this approach is shown in FIG. 17 in a pre-clinical animal model of CKD.
In order to reproduce all of these MD-specific protective factors for therapeutic use, the Inventors utilized the existing MMDD1 in vitro cell culture model of MD cells that endogenously produce these factors. […]

renin cell = assay: Renin cell proliferation and migration; type: cell-based; conditions: not shown
Description: as §2

[8] = low salt diet+captopril treatment for one week

NS(=O)(=O)c1ccc(-n2nc(C(F)(F)F)cc2-c2ccc(Cl)cc2)cc1 [SC58236]
inhibition of the increased density of NG2+ cells [1, 8]: 70% | number of NG2+ cells in the JGA area ([1]; low salt diet+captopril-treated, n=4 each group, P<0.05): significantly reduced

NH2-ACFNDSDMLCGGGKKHLLAHALHLLALLALHLAHALAHLKKA-NH2 (H-ACFNDSDMLCGGGKKHLLAHALHLLALLALHLAHALAHLKKA-NH2; cysteine pairing not given here) [MMDD1 homing peptide+GFP cDNA complex]
transfection with GFP (MMDD1 cells): successful transfection

O=[N+]([O-])c1cccc2cn[nH]c12 [7-NI]
proliferation of NG2+ cells [2, 8]: completely abolished | number of Ki67+ cells in the JGA area ([2]; low salt diet+captopril-treated, n=4 each group, P<0.05 versus untreated low salt+captopril): significantly reduced

NS(=O)(=O)c1cc(C(=O)O)c(NCc2ccco2)cc1Cl [furosemide]
kidney tissue (vascular and glomerular) remodeling [3]: significant kidney tissue remodeling; also recorded: Robust vascular and glomerular remodeling

B1: CCN1: recombinant CCN family member 1, secreted matricellular protein, angiogenic inducer (protein, UniProt O00622 25-381, looked up)
CCN family member 1: TCPAACHCPLEAPKCAPGVGLVRDGCGCCKVCAKQLNEDCSKTQPCDHTKGLECNFGASSTALKGICRAQSEGRPCEYNSRIYQNGESFQPNCKHQCTCIDGAVGCIPLCPQELSLPNLGCPNPRLVKVTGQCCEEWVCDEDSIKDPMEDQDGLLGKELGFDASEVELTRNNELIAVGKGSSLKRLPVFGMEPRILYNPLQGQKCIVQTTSWSQCSKTCGTGISTRVTNDNPECRLVKETRICEVRPCGQPVYSSLKKGKKCSKTKKSPEPVRFTYAGCLSVKKYRPKYCGSCVDGRCCTPQLTRTVKMRFRCEDGETFSKNVMMIQSCKCNYNCPHANEAAFPFYRLFNDIHKFRD
effect on cell proliferation and migration (cultured GEnCs [4]; added to the media of cultured GEnCs): robust dose-dependent effect | effects on GEnCs in presence of blocking antibodies for integrins αvβ3 and VEGF receptor blockers (cultured GEnCs [4]; not shown): almost completely abolished | albuminuria (albumin/creatinine ratio, ACR) ([5]; treatment for 5 consecutive days started two weeks after 8 mg/kg ADR iv, 1 and 4 weeks after treatment): robust decline | glomerulosclerosis and tissue fibrosis (trichrome kidney histology) ([5]; versus control saline-treated): improved pathology | in vitro angiogenesis (tube formation assay) compared with VEGF (cultured GEnCs [6]): more effective | Confetti cell tracing units in glomeruli ([7]; subcapsular treatment for one week): high number of Confetti cells formed monochromatic tracing units | remodeling of the glomerular endothelial layer ([7]; within a few days): rapid and robust remodeling | proteinuria (sclerotic glomeruli; preliminary mouse and rat studies of GS): diminished proteinuria | increase in Ki67+ proliferating cells in glomeruli (sclerotic glomeruli; single renal subcapsular treatment, two weeks' follow-up): > 20 fold | number of p57+ podocytes (sclerotic glomeruli; single treatment, treated versus control groups): significantly increased | effect on renin cell proliferation and migration (renin cell): no effect
